Measurements as given in paper PMC10896721.

How the values were obtained:
[1] = target: T1, human GIPR (glucose-dependent insulinotropic polypeptide receptor) (human) (UniProt P48546)
T1 sequence: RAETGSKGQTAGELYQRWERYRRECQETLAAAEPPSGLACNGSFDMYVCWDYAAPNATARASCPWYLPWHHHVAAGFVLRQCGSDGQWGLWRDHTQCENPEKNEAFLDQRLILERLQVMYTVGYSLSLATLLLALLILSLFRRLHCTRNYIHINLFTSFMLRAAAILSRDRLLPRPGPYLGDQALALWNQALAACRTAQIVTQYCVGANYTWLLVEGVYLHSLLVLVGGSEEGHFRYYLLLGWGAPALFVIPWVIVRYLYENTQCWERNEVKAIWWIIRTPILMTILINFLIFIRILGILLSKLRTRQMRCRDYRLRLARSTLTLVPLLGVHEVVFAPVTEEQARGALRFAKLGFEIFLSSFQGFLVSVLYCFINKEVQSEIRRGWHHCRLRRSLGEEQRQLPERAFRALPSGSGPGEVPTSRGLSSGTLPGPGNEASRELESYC

[2] = target: mouse GLP-1R (mouse) (UniProt O35659)
Chain of UniProt O35659 (O35659 22-463): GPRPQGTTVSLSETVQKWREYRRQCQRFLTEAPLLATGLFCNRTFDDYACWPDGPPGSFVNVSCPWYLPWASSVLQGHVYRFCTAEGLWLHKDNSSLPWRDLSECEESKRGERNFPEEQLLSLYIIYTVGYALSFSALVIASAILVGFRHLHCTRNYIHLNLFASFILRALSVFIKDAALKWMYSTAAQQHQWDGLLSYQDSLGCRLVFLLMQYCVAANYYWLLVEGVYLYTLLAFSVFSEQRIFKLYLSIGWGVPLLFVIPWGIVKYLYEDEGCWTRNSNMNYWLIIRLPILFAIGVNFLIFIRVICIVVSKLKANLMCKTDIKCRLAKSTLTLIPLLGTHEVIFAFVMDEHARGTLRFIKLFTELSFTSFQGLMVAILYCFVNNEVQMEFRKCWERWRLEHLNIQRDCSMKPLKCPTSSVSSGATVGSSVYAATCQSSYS

[3] = target: human GLP-1R (glucagon-like peptide-1 receptor) (human) (UniProt P43220)
Chain of UniProt P43220 (P43220 24-463): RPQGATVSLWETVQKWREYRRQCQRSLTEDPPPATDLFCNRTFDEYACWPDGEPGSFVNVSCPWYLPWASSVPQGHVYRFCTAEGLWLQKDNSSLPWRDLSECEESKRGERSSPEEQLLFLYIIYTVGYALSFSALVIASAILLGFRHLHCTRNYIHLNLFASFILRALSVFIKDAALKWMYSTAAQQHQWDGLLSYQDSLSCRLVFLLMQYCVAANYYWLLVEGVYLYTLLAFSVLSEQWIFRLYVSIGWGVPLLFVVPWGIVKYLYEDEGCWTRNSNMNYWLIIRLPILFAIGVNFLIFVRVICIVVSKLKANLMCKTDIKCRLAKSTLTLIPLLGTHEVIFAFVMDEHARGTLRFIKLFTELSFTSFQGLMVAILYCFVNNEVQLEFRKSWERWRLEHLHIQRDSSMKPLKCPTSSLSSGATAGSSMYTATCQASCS

[4] = target: cynomolgus monkey GLP-1R (cynomolgus monkey)

Chain of AMG 133 (maridebart cafraglutide) (VH): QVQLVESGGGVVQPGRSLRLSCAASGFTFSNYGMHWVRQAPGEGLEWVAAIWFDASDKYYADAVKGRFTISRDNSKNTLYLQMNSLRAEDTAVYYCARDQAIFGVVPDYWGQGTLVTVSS
Chain of AMG 133 (maridebart cafraglutide) (VL): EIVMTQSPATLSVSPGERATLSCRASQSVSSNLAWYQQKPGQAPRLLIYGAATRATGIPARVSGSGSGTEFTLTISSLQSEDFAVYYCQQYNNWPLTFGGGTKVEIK

| EC50 of cAMP accumulation in HEK 293T cells expressing human GIPR [1] | EC50 of cAMP accumulation in CHO-K1 cells expressing mouse GLP-1R [2] | EC50 of cAMP accumulation in CHO-K1 cells expressing human GLP-1R [3] | EC50 of cAMP accumulation in CHO-AM1D cells expressing cynomolgus monkey GLP-1R [4] | Substance |
| --- | --- | --- | --- | --- |
| 0.0066 nM | – | – | – | Native GIP (glucose-dependent insulinotropic polypeptide) (from UniProt P09681 52-93) (ligand) |
| – | 0.123 nM | 0.0244 nM | 0.0057 nM | AMG 133 (maridebart cafraglutide) |
